Test results published in the supplement of paper PMC10266784.

B1: library; numbered along this chain (parent)
chain: MAAAAAAAAEQQSSNGPVKKSMREKAVERRSVNKEHNSNFKAGYIPIDEDRLHKTGLRGRKGNLAICVIILLFILAVINLIITLVIWAVIRIGPNGCDSMEFHESGLLRFKQVSDMGVIHPLYKSTVGGRRNENLVITGNNQPIVFQQGTTKLSVENNKTSITSDIGMQFFDPRTQNILFSTDYETHEFHLPSGVKSLNVQKASTERITSNATSDLNIKVDGRAIVRGNEGVFIMGKTIEFHMGGNMELKAENSIILNGSVMVSTTRLPSSSSGDQLGSGDWVRYKLCMCADGTLFKVQVTSQNMGCQISDNPCGNTH

Variants of: B1
Test: SGCB cell-surface expression functional score (HA stain, bin4 vs bin1, normalised to synonymous) (log10 ratio); higher = more cell-surface SGCB (functional)
Experimental: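 Deep mutational scan of full-length human SGCB (YFP-SGCB-HA, NNN codon sublibraries A-F) delivered by lentivirus at low MOI into ADG-HEK293 cells stably expressing SGCA, SGCD and SGCG. YFP-positive cells were stained for surface HA on unpermeabilized cells and FACS-sorted into bins. The functional score is log10(frequency in high bin 4 / frequency in low bin 1), normalised per chunk so that synonymous variants have mean 0 and SD 0.5. Scores are the median over codons and over duplicate biological replicates; scores below -0.5 are called non-functional. Scale: negative means deleterious.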

SGCB cell-surface expression functional score (log10) of substitutions, site by site:
V85: P -1.14, C -0.21, H -0.11, E 0.35, G 0.11, L 0.24, S -0.2, W -0.09, Q 0.08, Y -0.17, N -0.37, D -0.21, M 0.58, I -0.18, K 0.01, A 0.3, F -0.43, T -0.05, R -0.06
I82: A 0.03, H 0.12, Y -0.15, Q 0.28, V 0.04, R -0.66, S -0.18, M -0.24, P 0.22, C 0.11, T -0.05, K 0.1, D -0.85, F 0.01, N -0.69, E -0.49, L 0.07, W -1.15, G -0.2
V89: K 0.02, S -0.41, A -0.23, T -0.3, W -1.16, D -2.32, R -0.63, G -0.36, P -0.88, L -1.13, C 0, M -0.96, F -1.21, H -1.8, I -0.52, Y -1.29, N -2.05, E -0.95, Q -1.44
I90: A 0.12, G -0.76, C 0.33, N 0.07, S -0.35, V 0.01, Q -0.71, L 0.26, P -1.1, W -0.2, T 0.06, E -1.22, R -0.63, H -1.82, D -0.63, Y -1.02, M -0.16, K 0.13, F -1.5
I81: Y -0.45, E 0.31, Q 0.03, R -0.73, M -0.08, K -0.06, A 0.13, P 0.12, N 0.04, V -0.03, F -0.08, S -0.14, C -0.06, T -0.23, L 0.1, W -0.38, G 0, D 0.12, H 0.45
W87: Q 0.02, T -0.05, D 0.08, H -0.27, L -0.04, S 0.18, R -0.12, A -0.18, G -0.12, I 0.48, P -0.55, K 0.25, E -0.7, F 0.33, M 0.4, N 0.58, V -0.45, Y 0, C -0.23
I74: Q 0, W 0.64, P -0.18, S -0.05, T -0.02, Y -0.07, R -1.42, V -0.01, N 0.04
A88: V 0.25, N -0.37, E -0.1, L 0.14, G 0.19, Y 0.01, C -0.27, W -0.36, M -0.05, K 0.62, H 0.49, D 0.41, Q 0.15, T 0.17, F 0.14, P -1.07, I 0.06, S 0.49, R -0.43
A76: N 0.08, M -0.23, D -0.4, C 0.13, W 0.14, T -0.35, K -0.81, S 0.05, H -0.07, I 0.22, R -0.35, F 0.33, E 0.02, Y 0.25, P -0.1, L 0.08, Q 0.3, G -0.2, V 0
I92: C -1.75, A -1.94
V77: Y -0.22, G -0.14, K -0.21, A -0.12, L -0.16, E -0.04, R -0.37, D 0.07, Q 0.33, P -0.24, M 0.2, T -0.07, N -0.21, C -0.11, H -0.48, S -0.06, I -0.12, F 0.04, W -0.2
R91: H 0, N -0.75, A -0.38, V -1.43, W -1.69, Q 0.15, I -1.85, M -1.94, C -0.72, L -1.93, E -0.8, S -0.79, Y -1.94, D -1.32, T -2.04, P -1.76, G -0.52, F -1.71, K 0.34
I78: G -0.04, W 0.33, S -0.22, N 0.19, R -0.54, L -0.05, C -0.19, A 0.15, F -0.56, K 0.05, H 0.1, V 0, T -0.02, D -0.1, Y -0.68, M -0.34, Q -0.47, P -0.22, E -0.45
L75: E -0.08, Y -0.25, G -0.34, N -0.4, M 0.77, S 0.09, H 0.2, R -0.32, V -0.01, F 0.18, D -0.31, C -0.06, W 0.39, Q -0.18, A -0.22, I 0.09, T 0.27, P 0, K 0.2
L84: V 0.24, S 0.09, I 0.01, Q 0.78, K 0.18, D -0.05, Y -0.41, W 0.4, E 0.26, N -0.44, G 0.24, P 0.02, T 0.17, F -0.57, C -0.21, M 0.1, A 0, H -0.4, R 0.08
T83: Y -0.43, E -0.18, V -0.11, D -0.02, L 0.1, S -0.2, G 0.04, I 0.05, H -0.43, M 0.14, R -0.49, N 0.2, C -0.51, W -0.91, A -0.17, F -0.77, P -0.3, K -0.33, Q 0.46
L80: D -0.2, N 0.12, G 0.19, I -0.01, V 0.26, Q -0.24, R -0.03, C 0.66, P -0.3, H -0.14, M 0.32, Y 0.27, E -0.1, S 0.2, F -0.22, T 0.42, K -0.07, A 0.19, W 1.23
N79: A 0.21, K -0.4, P 0, V 0, D -0.24, S -0.15, H -0.33, M -0.67, R -0.8, E 0.06, C 0.15, G 0.06, Q 0.29, F -0.85, L -0.15, Y -0.74, I -0.01, T -0.23, W -1.05
I86: C -0.24, G -0.59, A -0.08, D -0.79, N -0.75, K -0.65, S -0.98, T -0.15, L -0.35, V 0.32, P -0.94, W -2.19, F -0.48, Y -0.61, H -1.91, R -0.77, Q -0.24, M -0.18, E -0.39
